In article PMC5693285:

What was measured:
[1] = system: His-VtrAN (Vibrio parahaemolyticus RIMD2210633?); test: EMSA; details: EMSA: 10 mM Tris-HCl pH 7.5, 100 mM KCl, 1 mM DTT, 1 mM EDTA, 0.2% NP-40, 10% glycerol, 100 ng/ml BSA; 4 nM probe, protein 0-400 nM; 30 min room temperature; 6%
[2] = system: His-VtrAN-ZIPm (Vibrio parahaemolyticus RIMD2210633?; ZIP from Saccharomyces cerevisiae GCN4); test: EMSA; details: EMSA: 10 mM Tris-HCl pH 7.5, 100 mM KCl, 1 mM DTT, 1 mM EDTA, 0.2% NP-40, 10% glycerol, 100 ng/ml BSA; 4 nM probe, protein 0-400 nM; 30 min room temperature; 6%

Sequence: AGGGGCTATGCCCCTTTTATTTTTAATTCTCAAAGTTATCTTTTGAAGGTAATGGGGTATTTTTGAATAACTACATTGGGGTGTGATTGTCCTCGTTGTTTTTTAGTTTTTTTTAGGTTTTTTTTGCTGCTTTTCACGGTTTTATCATCACTTTATTCCGTGATTTAGCAAAATTCTTTTTAGGAGTTTGAAGTGGTCGTCTTCATTACCACGGCTTTAAGAACAGAGACGTTCTCTTTTAATCACAATAAATAACGAAGAAAAACTGTGAAAAGGGCTCAGCG (double strand) [vtrB upstream region 284 bp]
- binding [1]: > 400 nM
- binding [2]: > 400 nM
